What was measured:
Assay in all cases: cryo-EM structure; BlaR1 in LMNG, purified by GraDeR glycerol gradient, desalted into 150 mM sodium chloride, 20 mM HEPES pH 7.5; grids blotted at 4 °C; BlaR1(F284A) also with ampicillin (1 mM, then 250 µM)
[1] = target: S. aureus BlaR1 F284A mutant acylated with ampicillin (BlaR1(F284A)–ampicillin) (S. aureus) (UniProt Q00419)
[2] = target: S. aureus BlaR1 F284A mutant (BlaR1(F284A)) (S. aureus) (UniProt Q00419)
[3] = target: S. aureus BlaR1, wild type (BlaR1(WT)) (S. aureus) (UniProt Q00419)

S. aureus BlaR1 F284A mutant acylated with ampicillin (BlaR1(F284A)–ampicillin) (from UniProt Q00419 1-585) (receptor)
stoichiometry N [1]: 2

S. aureus BlaR1 F284A mutant (BlaR1(F284A)) (from UniProt Q00419 1-585) (receptor)
stoichiometry N [2]: 2

S. aureus BlaR1, wild type (BlaR1(WT)) (from UniProt Q00419 1-585) (receptor)
stoichiometry N [3]: 2
